These are literature values, as cited in patent US20210000129A1, “COMPOSITION FOR LOWERING BLOOD PRESSURE AND/OR REDUCING NEUTRAL FATS” (MORINAGA MILK INDUSTRY CO., LTD., priority 2018, published 2021).

Series [1] has as its target angiotensin converting enzyme (Homo sapiens, UniProt P12821). Particulars: known from References 1 to 3.
Another series deals with dipeptidyl-peptidase IV (Homo sapiens, UniProt P27487). The following applies: known from References 1 to 3.
Chain of dipeptidyl-peptidase IV (P27487 whole entry, species assumed): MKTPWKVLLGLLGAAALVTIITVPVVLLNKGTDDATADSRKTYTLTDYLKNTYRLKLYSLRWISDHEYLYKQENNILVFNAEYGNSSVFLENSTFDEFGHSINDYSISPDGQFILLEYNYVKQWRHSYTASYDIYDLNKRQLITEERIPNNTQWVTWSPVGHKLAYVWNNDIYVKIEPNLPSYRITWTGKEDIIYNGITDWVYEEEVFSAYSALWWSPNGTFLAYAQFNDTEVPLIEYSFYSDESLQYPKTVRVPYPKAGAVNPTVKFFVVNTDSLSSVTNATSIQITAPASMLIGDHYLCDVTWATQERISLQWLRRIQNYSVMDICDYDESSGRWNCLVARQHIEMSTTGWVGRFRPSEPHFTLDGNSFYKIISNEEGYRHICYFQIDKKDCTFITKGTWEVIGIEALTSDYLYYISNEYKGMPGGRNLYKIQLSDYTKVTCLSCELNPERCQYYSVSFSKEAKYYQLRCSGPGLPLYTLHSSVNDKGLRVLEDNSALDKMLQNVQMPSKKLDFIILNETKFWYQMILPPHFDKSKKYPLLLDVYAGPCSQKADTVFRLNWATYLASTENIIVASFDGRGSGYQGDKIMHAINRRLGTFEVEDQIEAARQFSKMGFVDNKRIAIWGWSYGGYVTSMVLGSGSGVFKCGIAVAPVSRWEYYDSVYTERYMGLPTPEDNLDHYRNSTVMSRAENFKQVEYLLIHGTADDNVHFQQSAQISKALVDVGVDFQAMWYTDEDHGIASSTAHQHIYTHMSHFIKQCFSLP

Chain of angiotensin converting enzyme (P12821 30-1306, species assumed): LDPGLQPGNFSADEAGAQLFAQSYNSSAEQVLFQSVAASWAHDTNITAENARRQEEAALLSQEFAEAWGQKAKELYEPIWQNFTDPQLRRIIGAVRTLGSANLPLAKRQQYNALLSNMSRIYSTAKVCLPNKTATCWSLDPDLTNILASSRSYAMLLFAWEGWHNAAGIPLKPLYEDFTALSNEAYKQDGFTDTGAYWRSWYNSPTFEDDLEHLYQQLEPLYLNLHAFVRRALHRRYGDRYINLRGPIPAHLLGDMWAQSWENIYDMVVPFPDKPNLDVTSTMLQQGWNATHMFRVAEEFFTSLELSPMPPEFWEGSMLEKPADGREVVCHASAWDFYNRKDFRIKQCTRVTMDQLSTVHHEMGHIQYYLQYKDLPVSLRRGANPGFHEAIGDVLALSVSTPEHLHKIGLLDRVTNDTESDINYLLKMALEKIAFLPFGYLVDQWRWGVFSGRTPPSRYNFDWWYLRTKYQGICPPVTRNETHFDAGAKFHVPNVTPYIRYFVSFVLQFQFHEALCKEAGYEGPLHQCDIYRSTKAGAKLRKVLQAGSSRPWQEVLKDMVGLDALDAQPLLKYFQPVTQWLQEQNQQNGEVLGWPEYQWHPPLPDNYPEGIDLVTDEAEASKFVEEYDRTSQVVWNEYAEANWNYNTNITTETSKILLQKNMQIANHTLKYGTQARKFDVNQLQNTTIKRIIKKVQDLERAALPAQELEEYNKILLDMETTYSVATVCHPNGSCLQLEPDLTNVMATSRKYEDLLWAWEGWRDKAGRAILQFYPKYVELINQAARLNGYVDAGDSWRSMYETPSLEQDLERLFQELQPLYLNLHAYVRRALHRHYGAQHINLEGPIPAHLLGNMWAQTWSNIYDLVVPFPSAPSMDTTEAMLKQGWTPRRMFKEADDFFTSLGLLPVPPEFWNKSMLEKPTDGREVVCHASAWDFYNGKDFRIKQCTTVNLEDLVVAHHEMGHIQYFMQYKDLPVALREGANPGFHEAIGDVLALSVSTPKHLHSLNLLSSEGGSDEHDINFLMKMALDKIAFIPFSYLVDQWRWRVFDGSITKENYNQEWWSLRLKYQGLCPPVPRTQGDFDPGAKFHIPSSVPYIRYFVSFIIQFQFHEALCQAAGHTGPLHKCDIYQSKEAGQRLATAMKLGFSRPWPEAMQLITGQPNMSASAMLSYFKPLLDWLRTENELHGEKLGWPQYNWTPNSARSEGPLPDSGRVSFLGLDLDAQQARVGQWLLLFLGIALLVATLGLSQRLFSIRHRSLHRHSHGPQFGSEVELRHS

Turning to Met-Lys-Pro (MKP) [tripeptide MKP], in series [1], the “angiotensin converting enzyme-inhibiting action” value was “angiotensin converting enzyme-inhibiting action”. For the same substance, in the series with dipeptidyl-peptidase IV, the “dipeptidyl-peptidase IV-inhibiting action” value is recorded as “dipeptidyl-peptidase IV-inhibiting action”.
